Assay results from PMC7196836, “Molecular analysis of the ribosome recycling factor ABCE1 bound to the 30S post‐splitting complex” (The EMBO Journal, 2020).

Target: Thermococcus celer 30S small ribosomal subunit (T. celer (endogenous in T. celer cells)) (UniProt P29161)
Test: cryo-EM structure; post-splitting complex from 1 nmol T. celer 70S split by ABCE1^IIEA (8 uM), aPelota and aRF1 (5 uM each), 0.5 mM AMP-PNP, 50 mM HEPES-KOH pH 7.5, 30 mM KCl, 10 mM MgCl2, 2 mM DTT, 65 °C 15 min; cross-linked with 1% formaldehyde; 30S fractions of a 10-30% sucrose gradient

Substance: ABCE1^IIEA (E238A/E485A), hydrolysis-deficient ABCE1 from Saccharolobus solfataricus (from UniProt Q980K5 1-594) (enzyme)
- percent of 30S particles associated with ABCE1 (3D classification): 97%
